How the values were obtained:
Recombinant tobacco MPO1 = target: T1, Recombinant tobacco MPO1 (Nicotiana tabacum, UniProt A0A1S4BDC4); conditions: for V/K: substrate of recombinant tobacco MPO1
T1 sequence (A0A1S4BDC4 1-790): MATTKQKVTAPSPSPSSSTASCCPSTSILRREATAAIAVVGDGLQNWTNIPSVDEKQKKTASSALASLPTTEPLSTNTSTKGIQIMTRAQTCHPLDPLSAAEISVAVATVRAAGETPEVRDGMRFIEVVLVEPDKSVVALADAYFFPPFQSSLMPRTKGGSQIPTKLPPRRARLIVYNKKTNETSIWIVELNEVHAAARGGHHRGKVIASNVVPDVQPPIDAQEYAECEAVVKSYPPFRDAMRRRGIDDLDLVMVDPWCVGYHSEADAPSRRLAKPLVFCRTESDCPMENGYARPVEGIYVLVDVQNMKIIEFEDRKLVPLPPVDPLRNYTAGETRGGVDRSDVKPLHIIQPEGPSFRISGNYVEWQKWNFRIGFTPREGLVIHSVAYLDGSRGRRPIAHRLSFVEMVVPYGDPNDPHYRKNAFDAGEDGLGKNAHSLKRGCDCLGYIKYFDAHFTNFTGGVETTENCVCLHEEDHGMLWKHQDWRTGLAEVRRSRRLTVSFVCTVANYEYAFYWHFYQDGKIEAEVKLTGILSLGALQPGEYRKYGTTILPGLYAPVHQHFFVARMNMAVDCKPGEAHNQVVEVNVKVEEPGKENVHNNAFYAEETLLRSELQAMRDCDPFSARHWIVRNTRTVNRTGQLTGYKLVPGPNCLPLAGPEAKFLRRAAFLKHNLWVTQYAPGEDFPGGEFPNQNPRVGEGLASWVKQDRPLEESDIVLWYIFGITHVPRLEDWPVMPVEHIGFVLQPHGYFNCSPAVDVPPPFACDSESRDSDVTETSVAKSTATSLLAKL
Description: The PCR product was first cloned into a pGEM-T Easy vector (Promega), then excised as the EcoRV-Not1 fragment, and finally cloned into the expression vector pGEX-6P (GE Healthcare). The resultant plasmid pGEX-MPO1 was introduced into the E. coli strain Rosetta (DE3) (Novagen). The recombinant bacteria were cultured in LB medium containing 50 μg/ml carbenicillin at 37° C. until the OD600 of the culture reached 0.4, IPTG and CuSO4 were added to the culture to the final concentrations of 0.1 mM and 4 mM, respectively, and the cultures were incubated at 16° C. for 16 h. Bacteria were harvested by centrifugation, suspended in a PBS buffer containing 10 mM DTT and 1 mg/ml lysozyme, incubated at 4° C. for 2 h, and then sonicated for 3 min. After centrifugation of the homogenate, the recombinant MPO1 protein fused to GST was purified from the supernatant by GSTrap HP (GE Healthcare) according to the manufacturer's protocol.

[1] = target: T2, Pig kidney diamine oxidase (Sus scrofa, UniProt Q9TRC7); conditions: in words
T2 sequence (Q9TRC7 25-755): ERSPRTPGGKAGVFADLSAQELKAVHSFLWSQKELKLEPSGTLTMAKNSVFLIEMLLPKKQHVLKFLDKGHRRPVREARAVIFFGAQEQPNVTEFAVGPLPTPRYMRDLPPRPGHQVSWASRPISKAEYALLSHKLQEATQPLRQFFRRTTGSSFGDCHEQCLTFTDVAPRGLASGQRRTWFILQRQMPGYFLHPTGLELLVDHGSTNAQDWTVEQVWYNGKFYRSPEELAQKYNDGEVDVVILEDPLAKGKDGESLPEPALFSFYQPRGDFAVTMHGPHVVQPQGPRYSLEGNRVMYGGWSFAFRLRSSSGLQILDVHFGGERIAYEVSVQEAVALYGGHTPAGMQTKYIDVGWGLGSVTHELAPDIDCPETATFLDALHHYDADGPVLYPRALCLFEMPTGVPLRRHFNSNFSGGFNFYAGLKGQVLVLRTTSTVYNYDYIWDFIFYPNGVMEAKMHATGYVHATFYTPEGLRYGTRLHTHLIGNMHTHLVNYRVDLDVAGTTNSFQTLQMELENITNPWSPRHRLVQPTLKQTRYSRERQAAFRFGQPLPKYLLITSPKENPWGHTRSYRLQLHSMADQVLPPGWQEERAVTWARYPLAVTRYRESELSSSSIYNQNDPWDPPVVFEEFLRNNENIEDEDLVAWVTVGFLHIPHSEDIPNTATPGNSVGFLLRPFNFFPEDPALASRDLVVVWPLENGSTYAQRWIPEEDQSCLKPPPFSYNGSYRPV
Description: (§1) Purified diamine oxidase from pig kidney was purchased from Sigma. Enzyme activities were calculated by data analysis software, Kaleida Graph (HULINKS).

NCCCN = test: purified protein, by the assay type; conditions: other: substrate of recombinant tobacco MPO1 (GST fusion, purified from E. coli)
Description: as §1

NCCCCCN = test: purified protein, by the assay type; conditions: other: substrate of recombinant tobacco MPO1 (GST fusion, purified from E. coli)
Description: as §1

[2] = substrate: CNCCCCN; test: purified protein, by the assay type; conditions: other: substrate of purified pig kidney diamine oxidase (Sigma)
Description: as §1

[3] = substrate: NCCCCCN; test: purified protein, by the assay type; conditions: other: substrate of purified pig kidney diamine oxidase (Sigma)
Description: as §1

[4] = substrate: NCCCCN; test: purified protein, by the assay type; conditions: other: substrate of purified pig kidney diamine oxidase (Sigma)

CCCCN [n-Butylamine]
Km (Recombinant tobacco MPO1; substrate of recombinant tobacco MPO1 (GST fusion, purified from E. coli)): 249 ± 180 µM

NCCCCN [Putrescine]
substrate preference [1]: preferred putrescine over N-methylputrescine | V/K (Recombinant tobacco MPO1): 3600

Recombinant tobacco MPO1 (Nicotiana tabacum)
Km (NCCCN): 158 ± 100 µM | Km (NCCCCCN): 362 ± 320 µM

CNCCCN [N-Methyl-1,3-diaminopropane]
V/K (Recombinant tobacco MPO1): 13000

B1: Pig kidney diamine oxidase (Sus scrofa) (protein)
chain: T2 sequence (Q9TRC7 25-755)
Km [2]: 657 ± 240 µM | Km [3]: 915 ± 420 µM | Km [4]: 228 ± 90 µM
